Test results taken from patent US20250027068.

B1: PRT-82 (protein)
chain: MANQEIRYSEVTPSTITSVWTKGVTPPAQFIQNEDVFHAPYVANQGWYDITKTFNGKDDLLCGAATAGNMLHWWFDQNKEEIEAYLKKHPEKQKIMFGDQELLDVRKVINTKDDQTNSALFNYFKDKAFPNLSARRLGVMPDLVLDMFINGYYLNVGKTQTTDVNRTYQNKDRRGGIFDAVFTRGDQSKLLTARHDFKEKNLNEISDLIKQELTEGKALALSHTYANVSINHVINLWGADFDANGNLEAIYVTDSDSNASIGMKKYFVGVNSAGKVAISAKEIEEDNIGAQVLGLFTLSTGQDIWNKTN
B2: PRT-113 (protein)
chain: MRNATEAYAKEVPHTITSVWTKGVTPPTPEQFTYYNEDVFHAPYLAHQGWYDITKTFNGKDNLLCGAATAGNMLHWWFDQNKTEIEAYLSKHPEKQKIIFNNQELFDLKAAIDTKDSQTNSQLFNYFKDKAFPNLSARQLGVMPDLVLDMFINGYYLNVFKTQSTDVNRPYQDKDKRGGIFDAVFTRGDQTKLLTARHDLKNKGLNDISDLIKQELTEGKALALSHTYANVSINHVINLWGADFNAEGNLEAIYVTDSDANASIGMKKYFVGINASGKVAISAKKIEGENIGAQVLGLFTLSSGKDIWQKLS
B3: PRT-119 (protein)
chain: MRNATEAYAKETPKQITSVWTKGVTPPTPEQFRYNNEDVFHAPYVANQGWYDITKTFDGKDNLLCGAATAGNMLHWWFDQNKTEIEKYLSKHPEKQKIIFNNQELFDLKAAIDTKDSQTNSQLFNYFRDKAFPNLSARQLGVMPDLVLDMFINGYYLNVTKTQSTDVNRPYQDKDKRGGIFDAVFTRGDQTKLLTARHDLGNKSLNEISQLIKQELQEGKALALSHTYANVRISHVINLWGADFDAEGNLEAIYVTDSDSNASIGMKKYYVGVNSAGKVAISAKKIEGENIGAQVLGLFTLSSGKDIWQKLS
B4: PRT-8 (protein)
chain: MANQEIRYSEVTPYHVTSVWTKGVTPPTNFTQGEDVFHAPYIANQGWYDITKTFNGKDDLLCGAATAGNMLHWWFDQNKDQIERYLKEHPEKQKINFNGEQMFDVKEAIDTKNSQLDSKLFEYFKEKAFPYLSTKHLGVFPDHVLDMFINGYRLSLTNHGPTPVKEGSKDPRGGIFDAVFTRGDQSKLLTSRHDFKEKNLKEISDLIKQELTEGKALGLSHTYANVRINHVINLWGADFDSNGNLEAIYVTDSDSNASIGMKKYFVGVNSAGKVAISAKEIKDDNIGAQVLGLFTLSTGQDIWNQTN
B5: PRT-7 (protein)
chain: MANQEIRYSEETPYHVTSVWTKGVTPPANFTQGEDVFHAPYVANQGWYDITKTFNGKDDLLCGAATAGNMLHWWFDQNKDQIERYLKKHPEKQKINFNGEQMFDVKEAIDTKDSQTDSKLFEYFKEKAFPYLSTKHLGVFPDHVIDMFINGYRLSLTNHGPTPVKEGSKDPRGGIFDAVFTRGDQSKLLTSRHDFKEKNLKEISDLIKKELTEGKALGLSHTYANVRINHVINLWGADFDSNGNLKAIYVTDSDSNASIGMKKYFVGVNSAGKVAISAKEIKEDNIGAQVLGLFTLSTGQDIWEQTN
B6: PRT-9 (protein)
chain: MANQEIRYSEETPYHVTSVWTKGVTPPANFTQGEDVFHAPYVANQGWYDITKTFNGKDDLLCGAATAGNMLHWWFDQNKEQIERYLKEHPEKQKINFNGEQMFDVKEAIDTKNSQLDSKLFEYFKEKAFPYLSTKHLGVFPDHVIDMFINGYRLSLTNHGPTPVKEGSKDPRGGIFDAVFTRGDQSKLLTSRHDFKEKTLKEISDLIKKELTEGKALALSHTYANVRINHVINLWGADFDSNGNLKAIYVTDSDSNASIGMKKYFVGVNSAGKVAISAKEIKEDNIGAQVLGLFTLSSGQDIWNQTN
B7: PRT-115 (protein)
chain: MRNATEAYAKETPKTITSVWTKGVTPPTPEQFRYNGEDVIHAPYLAHQGWYDITKTFDGKDNLLCGAATAGNMLHWWFDQNKTEIERYLKKHPEKQKIIFNNQELFDLKAAIDTKDSQTNSALFNYFRDKAFPNLSARQLGVMPDLVLDMFINGYYLNVTKTQSTDVNRPYQTKDKRGGIFDAVFTRGDQTKLLTARHDLKNKTLNDISTLIKQELTEGKALALSHTYANVSISHVINLWGADFNAEGNLEAIYVTDSDSNASIGMKKYFVGVNAAGKVAISAKKIKGENIGAQVLGLFTLSSGKDIWQKLS
B8: PRT-116 (protein)
chain: MRNATEAYNKATPTTITSVWTKGVTPPTPEQFRYNNEDVFHAPYKAHQGWYDITKTFNGKDNLLCGAATAGNMLHWWFDQNKTEIEAYLSKHPEKQKIIFNNQELFDLKAAIDTKDSQTNSQLFNYFRDKAFPNLSARQLGVMPDLVLDMFINGYYLNVFKTQSTDVNRPYQDKDKRGGIFDAVFTRGDQTKLLTARHDLKDKGLNEISDLIKQELTEGKALALSHTYANVRISHVINLWGADFNAEGNLEAIYVTDSDANASIGMKKYFVGVNSSGHVAISAKKIEGENIGAQVLGLFTLSSGKDIWQKLS
B9: PRT-111 (protein)
chain: MRNATEAYAKEVPHQITSVWTKGVTPPTPEQFRYNNEDVFHAPYLAHQGWYDITKTFNGKDNLLCGAATAGNMLHWWFDQNKTEIEAYLKKHPEKQKIIFNNQELFDLKAAIDTKDSQTNSQLFNYFRDKAFPNLSARQLGVMPDLVLDMFINGYYLNVFKTQSTDVNRPYQDKDKRGGIFDAVFTRGDQTTLLTNRHDLKNKGLNDISTLIKQELTEGKALALSHTYANVSISHVINLWGADFNAEGNLEAIYVTDSDANASIGMKKYFVGINSAGHVAISAKKIEGENIGAQVLGLFTLSSGKDIWQKLS
B10: PRT-117 (protein)
chain: MRNATEAYAKEVPHTITSVWTKGVTPPTPEQFTYQNEDVFHAPYLANQGWYDITKTFNGKDNLLCGAATAGNMLHWWFDQNKEEIERYLSKHPEKQKIIFNNQELFDLKAAIDTKDSQTNSALFNYFRDKAFPNLSARQLGVMPDLVLDMFINGYYLNVFKTQSTDVNRPYQDKDKRGGIFDAVFTRGDQTTLLTARHDLKNKGLNDISDLIKQELTEGKALALSHTYANVSISHVINLWGADFNAEGNLEAIYVTDSDANASIGMKKYFVGVNTAGKVAISAKKIEGENIGAQVLGLFTLSSGKDIWEQLS
B11: PRT-112 (protein)
chain: MRNATEAYAKEVPHKITSVWTKGVTPLTPEQFRYNGEDVIHAPYLANQGWYDITKTFDGKDNLLCGAATAGNMLHWWFDQNKTEIEAYLKKHPEKQKIIFNNQELFDLKAAIDTKDSQTNSALFNYFKDKAFPNLSARQLGVMPDHVLDMFINGYYLNVFKTQSTDVNRPYQDKDKRGGIFDAVFTRGDQTKLLTARHDLKNKGLNEISTLIKQELTEGKALALSHTYANVSISHVINLWGADFNAEGNLEAIYVTDSDANASIGMKKYFVGVNASGKVAISAKKIEGENIGAQVLGLFTLSSGKDIWQKLS
B12: PRT-118 (protein)
chain: MRNATEAYNKETPKTITSVWTKGVTPPTPEQFTKQNEDVFHAPYVANQGWYDITKTFNGKDNLLCGAATAGNMLHWWFDQNKTEIENYLKKHPEKQKIIFNNQELFDLKAAIDTKDSQTNSALFNYFRDKAFPNLSARQLGVMPDHVLDMFINGYYLNVNKTQSTDVNRPYDDKDKRGGIFDAVFTRGDQTTLLTARHDLKNKGLNEISTLIKQELTEGRALALSHTYANVSISHVINLWGADFNAEGNLEAIYVTDSDANASIGMKKYFVGKNASGKVAISAKKIEGDNIGAQVLGLFTLSSGKDIWQKLS
B13: PRT-114 (protein)
chain: MRNATEAYNEETPHQITSVWTKGVTPPTPEQFRYNNEDVIHAPYLANQGWYDITKTFNGKDNLLCGAATAGNMLHWWFDQNKTEIEAYLSKHPEKQKIIFNNQELFDLKAAIDTKDSQTNSQLFNYFREKAFPNLSARQLGVMPDLVLDMFINGYYLNVTKTQSTDVNRPYQDKDKRGGIFDAVFTRGDQTKLLTARHDLKNKTLNEISTLIKQELTEGRALALSHTYANVSISHVINLWGADFNAEGNLEAIYVTDSDANASIGMKKYFVGVNAAGHVAISAKKIEGENIGAQVLGLFTLSSGKDIWQKLS
B14: PRT-83 (protein)
chain: MANQEIRYSEETPYHVTSVWTKGVTPPEKFTQGEDVFHAPYVANQGWYDITKTFNGKDDLLCGAATAGNMLHWWFDQNKDQIEAYLSKHPEKQKIMFGDQELLDVRKAINTKDSQTNSELFNYFRDKAFPNLSARRLGVMPDLVLDMFINGYRLNVTKTQTTDVNETYQEKDKRGGIFDAVFTRGDQSKLLTSRHDFKEKTLNEISDLIKKELTEGKALGISHTYANVRINHVINLWGADFNSEGNLEAIYVTDSDSNASIGMKKYFVGVNSAGKVAISAKEIEEENIGAQVLGLFTLSTGQDIWQQTN

The proteins below were run against pooled human IgG.

Q: Which Enzyme Activity Endpoint Assay (purified): Fab′2 does the source give for B1 here?
A: 9 ng/µL

Q: What about the Enzyme Activity Endpoint Assay (purified): Fc of the same protein?
A: 67 ng/µL

Q: What about the Enzyme Activity Endpoint Assay (purified): IgG of the same protein?
A: 15 ng/µL

Q: What about the Enzyme Activity Endpoint Assay (purified): scIgG of the same protein?
A: 60 ng/µL

Q: B2 was tested. Which Enzyme Activity Endpoint Assay (purified): Fab'2 did it give?
A: 656 ng/µL

Q: And the Enzyme Activity Endpoint Assay (purified): Fc?
A: 189 ng/µL

Q: And the Enzyme Activity Endpoint Assay (purified): IgG?
A: 0 ng/µL

Q: And the Enzyme Activity Endpoint Assay (purified): scIgG?
A: 0 ng/µL

Q: Which results are given for B3?
A: Enzyme Activity Endpoint Assay (purified): Fab'2: 15 ng/µL; Enzyme Activity Endpoint Assay (purified): Fc: 96 ng/µL; Enzyme Activity Endpoint Assay (purified): IgG: 0 ng/µL; Enzyme Activity Endpoint Assay (purified): scIgG: 133 ng/µL

Q: Which Enzyme Activity Endpoint Assay: Fab′2 does the source give for B4 here?
A: 50 ng/µL

Q: And the Enzyme Activity Endpoint Assay: Fc?
A: 127 ng/µL

Q: What about the Enzyme Activity Endpoint Assay: IgG of the same protein?
A: 16 ng/µL

Q: What about the Enzyme Activity Endpoint Assay: scIgG of the same protein?
A: 16 ng/µL

Q: With B5 as the protein, how does the Enzyme Activity Endpoint Assay: Fab′2 read?
A: 50 ng/µL

Q: And the Enzyme Activity Endpoint Assay: Fc?
A: 137 ng/µL

Q: And the Enzyme Activity Endpoint Assay: IgG?
A: 18 ng/µL

Q: And the Enzyme Activity Endpoint Assay: scIgG?
A: 16 ng/µL

Q: What does the source list for B6?
A: Enzyme Activity Endpoint Assay: Fab′2: 39 ng/µL; Enzyme Activity Endpoint Assay: Fc: 103 ng/µL; Enzyme Activity Endpoint Assay: IgG: 21 ng/µL; Enzyme Activity Endpoint Assay: scIgG: 32 ng/µL

Q: Which Enzyme Activity Endpoint Assay (purified): Fab'2 does the source give for B7 here?
A: 124 ng/µL

Q: What about the Enzyme Activity Endpoint Assay (purified): Fc of the same protein?
A: 128 ng/µL

Q: What about the Enzyme Activity Endpoint Assay (purified): IgG of the same protein?
A: 24 ng/µL

Q: And the Enzyme Activity Endpoint Assay (purified): scIgG?
A: 105 ng/µL

Q: With B8 as the protein, how does the Enzyme Activity Endpoint Assay (purified): Fab'2 read?
A: 510 ng/µL

Q: What about the Enzyme Activity Endpoint Assay (purified): Fc of the same protein?
A: 188 ng/µL

Q: What about the Enzyme Activity Endpoint Assay (purified): IgG of the same protein?
A: 0 ng/µL

Q: And the Enzyme Activity Endpoint Assay (purified): scIgG?
A: 0 ng/µL

Q: What does the source list for B9?
A: Enzyme Activity Endpoint Assay (purified): Fab'2: 328 ng/µL; Enzyme Activity Endpoint Assay (purified): Fc: 133 ng/µL; Enzyme Activity Endpoint Assay (purified): IgG: 26 ng/µL; Enzyme Activity Endpoint Assay (purified): scIgG: 0 ng/µL

Q: With B10 as the protein, how does the Enzyme Activity Endpoint Assay (purified): Fab'2 read?
A: 663 ng/µL

Q: What about the Enzyme Activity Endpoint Assay (purified): Fc of the same protein?
A: 207 ng/µL

Q: And the Enzyme Activity Endpoint Assay (purified): IgG?
A: 0 ng/µL

Q: And the Enzyme Activity Endpoint Assay (purified): scIgG?
A: 0 ng/µL

Q: How did the Enzyme Activity Endpoint Assay (purified): Fab'2 turn out when B11 was run?
A: 435 ng/µL

Q: What about the Enzyme Activity Endpoint Assay (purified): Fc of the same protein?
A: 152 ng/µL

Q: What about the Enzyme Activity Endpoint Assay (purified): IgG of the same protein?
A: 15 ng/µL

Q: And the Enzyme Activity Endpoint Assay (purified): scIgG?
A: 0 ng/µL

Q: How did the Enzyme Activity Endpoint Assay (purified): Fab'2 turn out when B12 was run?
A: 23 ng/µL

Q: And the Enzyme Activity Endpoint Assay (purified): Fc?
A: 85 ng/µL

Q: What about the Enzyme Activity Endpoint Assay (purified): IgG of the same protein?
A: 0 ng/µL

Q: What about the Enzyme Activity Endpoint Assay (purified): scIgG of the same protein?
A: 153 ng/µL

Q: How did the Enzyme Activity Endpoint Assay (purified): Fab'2 turn out when B13 was run?
A: 361 ng/µL

Q: And the Enzyme Activity Endpoint Assay (purified): Fc?
A: 162 ng/µL

Q: And the Enzyme Activity Endpoint Assay (purified): IgG?
A: 129 ng/µL

Q: And the Enzyme Activity Endpoint Assay (purified): scIgG?
A: 111 ng/µL

Q: For B14, which Enzyme Activity Endpoint Assay (purified): Fab′2 is on record?
A: 0 ng/µL

Q: What about the Enzyme Activity Endpoint Assay (purified): Fc of the same protein?
A: 44 ng/µL

Q: And the Enzyme Activity Endpoint Assay (purified): IgG?
A: 42 ng/µL

Q: And the Enzyme Activity Endpoint Assay (purified): scIgG?
A: 40 ng/µL
